Source: US12173292B2, “Controlling bacterial biofilms” (LANXESS Corporation, priority 2019, dated 2024)

How the values were obtained:
[1] = system: Pdvu2956 (dvu2956 gene regulatory sequence); test: Pdvu2956-mNeonGreen reporter fluorescence assay; type: cell-based, E. coli BL21(DE3); conditions: ectopic expression induced by 1 mM IPTG for 90 minutes; E. coli/pMQ70-Pdvu2956-mNeonGreen/pET27b-dvu2956; excitation 425 nm, emission 517 nm
Excerpt: A D. vulgaris dvu2956 gene regulatory sequence (SEQ ID NO:12), which comprises (in 5′ to 3′ direction) predicted promoter (SEQ ID NO:13) and 5′-untranslated region (5′-UTR) sequences (SEQ ID NO:14), was linked upstream of a synthetic ribosome binding site (RBS, SEQ ID NO:15) and a codon-optimized nucleotide sequence (SEQ ID NO:16) encoding a monomeric yellow-green fluorescent protein (mNeonGreen™, GenBank® Accession No. KC295282). This nucleotide sequence (provided as SEQ ID NO:17) was constructed in E. coli TG1 to render plasmid construct pMQ70-Pdvu2956-mNeonGreen (8164 bp) and then transferred into D. vulgaris (wild type) and E. coli strain BL21(DE3), the latter of which was already transformed with plasmid pET27b-dvu2956 (pET27b-dvu2956 allows for IPTG-induced expression of ectopic DVU2956 [SEQ ID NO:2]). PCR analyses confirmed the presence of plasmids pMQ70-Pdvu2956-mNeonGreen (in both strains) and pET27b-dvu2956 (in E. coli). Additional D. vulgaris and E. coli strains that were transformed with plasmid pMQ70 were prepared, and served as negative controls in the fluorescence assays described below.
A similar analysis was conducted to test whether Pdvu2956 can heterologously drive gene expression in bacteria other than sulfate-reducing bacteria. […]

[2] = system: D. vulgaris biofilm cells; test: Hydrogen sulfide production assay (methylene blue spectrophotometric); type: cell-based, Desulfovibrio vulgaris Hildenborough
Description: Hydrogen sulfide (H2S) by D. vulgaris strains was measured via a methylene blue spectrophotometric assay (Rabinowitz, 1978, Methods Enzymol. 53:275-277; incorporated herein by reference). Briefly, in this assay, N,N-dimethyl-p-phenylenediamine dihydrochloride is converted into methylthioninium chloride (methylene blue) by reacting with H2S dissolved in hydrochloride acid in the presence of ferric chloride. For a 96-well screening format, D. vulgaris was anaerobically grown in Modified Baar's medium in a 96-well plate (starting turbidity/OD of 0.05 at 600 nm, 150-μL culture volume) and incubated for 48 hours for biofilm formation. Anaerobically, 25 μL of each biofilm culture was transferred to another 96-well plate containing 225 μL deoxygenated water per well to render a 10-fold dilution of the transferred culture. Next, 5% N,N-dimethyl-p-phenylenediamine dihydrochloride (24.5 μL, prepared in 5.5 N HCl) (Sigma-Aldrich, cat. no. 536-46-9) was added to each well. After mixing the wells gently by pipetting and anaerobically incubating the mixes at room temperature for 3 minutes, the 96-well plate was removed from the anaerobic chamber and the absorbance at 670 nm of each well was measured using a Sunrise™ microplate reader.
For a more rigorous H2S assay, sealed glass vials were used to prevent H2S loss. D. vulgaris strains were grown anaerobically for 7 to 10 days in 10 mL of Modified Baar's medium with 2.5 g of sterilized glass wool to promote biofilm formation. Supernatants from these cultures were transferred by syringe to another sealed vial for dilution with 10 mL of PBS buffer. Anaerobically, 1 mL of diluted sample was then transferred by syringe to another sealed bottle with 125 μL of 12% sodium hydroxide and 3.25 mL of 1% zinc acetate (to fix the sulfide from H2S by forming ZnS precipitates). […] Water (2.125 mL) was added and mixed, and then at least 1 mL of each reaction was removed to determine absorbance at 670 nm.

[3] = system: D. vulgaris biofilm; test: Biofilm formation assay, crystal violet staining, 96-well plates; type: cell-based, Desulfovibrio vulgaris Hildenborough
Description: (§1) D. vulgaris, D. desulfuricans and plasmid-transformed strains of both of these bacteria were grown anaerobically in Modified Baar's medium (300 μL) in 96-well micro-titer plates (Fisher Scientific, cat no. 07-200-656) for 24 hours at 30° C. without shaking, after which time the planktonic cell turbidity in each well was measured spectrophotometrically at 620 nm using a Sunrise™ microplate reader (TECAN, Switzerland). The plates were then incubated under the same conditions for an additional 24 to 48 hours, after which biofilm formation was measured by crystal violet staining. For biofilm dispersal assays, 24 hours after seeding the plates for biofilm growth, arabinose (10 mM) was added to strains harboring plasmids allowing arabinose-based induction of DVU2956 (SEQ ID NO:2). The arabinose-treated strains were then incubated anaerobically for another 24 hours without shaking, after which time biofilm formation was measured by crystal violet staining.
For crystal violet staining, the liquid portion of the cultures was discarded and the wells were washed by dipping the plates into 1 L of distilled water, after which the plates were dried with paper towel. Crystal violet (0.1%, 300 μL) was added to each well and the plates were incubated for 20 minutes at room temperature. After discarding the bulk of the staining solution, the wells were washed three times with distilled water as above to remove unbound crystal violet. The wells were then soaked for 5 minutes in 95% ethanol (300 μL) to dissolve the remaining (bound) crystal violet, which was then measured spectrophotometrically at 540 nm using the Sunrise™ microplate reader. Normalized biofilm formation percentage values were calculated based on the ratio of […] to compare the degree of biofilm formation or dispersal.

[4] = system: established D. vulgaris biofilms; test: Biofilm dispersal assay, arabinose induction, crystal violet staining; type: cell-based, Desulfovibrio vulgaris Hildenborough; conditions: after 24 hours; expression from inducible promoter PBAD on pMQ70; vs D. vulgaris/pMQ70
Description: as §1
(§2) For crystal violet staining, the liquid portion of the cultures was discarded and the wells were washed by dipping the plates into 1 L of distilled water, after which the plates were dried with paper towel. […] The wells were then soaked for 5 minutes in 95% ethanol (300 μL) to dissolve the remaining (bound) crystal violet, which was then measured spectrophotometrically at 540 nm using the Sunrise™ microplate reader. […]

[5] = system: D. desulfuricans biofilm; test: Biofilm formation assay, crystal violet staining, 96-well plates; type: cell-based, Desulfovibrio desulfuricans (DSM 12129); conditions: at 24 hours; D. desulfuricans/pVLT33-Pdvu0304-dvu2956 vs D. desulfuricans/pVLT33-Pdvu0304
Description: as §1, §2

[6] = at 48 hours, biofilm-specific expression from pVLT33-Pdvu0304-based construct in D. vulgaris, vs wild type and D. vulgaris/pVLT33-Pdvu0304

B1: DVU2956: D. vulgaris Hildenborough sigma 54-dependent enhancer-binding protein, 345 aa, SEQ ID NO:2, expressed in the bacteria from plasmids (protein)
chain: MSGKKLPHSGNSLPIEGTVSPQRETLQNGTDFLLLSGVMQRLRVLASQVASSDAPVLIHGETGTGKELFARLIHDMGIRAKKPFVAVNCGVHEGELFADKFFGHEQGAFTGAHRMSQGCFELASEGTLFLDEVGEIPGANQADFLRVLEEKRFRRIGGQRDIPFQARIVAASNRDLQEMVGQGQFRADLFYRLNVIPVVLPPLRARKEEVVPLARHFLTHYGDKYHRPGVRFAPETEQALAAYQWPGNVRELKNLVERIALLAPEGVLGPEHLPLELRSAAAVEVGVPHEVPEDLSLDRARREAEVRVILKAMRATGGNKGEAARLLGVSPRTLRYKFAEYALRF
modifications: Desulfovibrio vulgaris Hildenborough
[1]
  higher fluorescence signal vs negative control: ~14 fold
[2]; 96-well culture, D. vulgaris/pVLT33-Pdvu0304-dvu2956 vs D. vulgaris/pVLT33-Pdvu0304
  decrease of H2S production: 51±2%
[2]; D. vulgaris (dvu2956-)/pMQ70-Pdvu2956-dvu2956 vs D. vulgaris (dvu2956-)/pMQ70-Pdvu2956
  decrease of H2S production: 45±13%
[2]; sealed vials, biofilm-specific expression
  inhibition of H2S production: 34.6±0.6%
[3]; at 24 hours, D. vulgaris (dvu2956-) complemented with pMQ70-Pdvu2956-dvu2956, vs D. vulgaris (dvu2956-)/pMQ70-Pdvu2956
  inhibition of biofilm formation: 48±11%
[4]
  dispersal of established biofilms: 42±4%
[5]
  inhibition of biofilm formation: 78±9%

B2: DVU2962: D. vulgaris Hildenborough protein, 577 aa, SEQ ID NO:8, expressed from pVLT33-Pdvu0304-dvu2962 (protein)
chain: MKNPLGTMLSRLRSVFDVPDEIAPERYRMLRRKITLLMTAVSVLPLLILTAVSYHQYQSTLTREIVTPVRALVNKTRHSFELFLAERSSTVSLLAKTYSMAELSDEKNLNRIFLALKGEFPGFVDLGVIDGRGVQVGYVGPYDVRGKNYSEADWYNRTRVKGVYISDVFMGFRRFPHIAIAVQRMNPDGSSWMLRATIETTQFDRLIASMGLDPESDAFLINTAGVLQTNSRFYGNVLDVMPMPVPHLSYEPSIIDTEDPEGRQIFLSSAFLQNADFAIVAVKPKTEILRPWTSLRSDLLIFVAFSVALIISAAFGFTDMLVRRMRDSDERRIAAFVQIEHTQKLSSIGRLAAGVAHEINNPLAIINEKAGLAADLIALSQDFPQKERFSAIVEAISRSVDRCRSITHRLLGFSRRMDATYEQLDVNGILKETMSFLEQEAVHRSITIGTSLDAGLPRITSDRGQLQQVFLNIINNAFAAVQDGGSVTLTTFAADGGMVGVSIQDNGKGMSEEVQRHIFEPFFTTKKTAGTGLGMFITYGIIKRLGGEIGINSREGVGTTVTVYLPQDAPAPQSLEN
modifications: Desulfovibrio vulgaris Hildenborough
[3]; [6]
  inhibition of biofilm formation: 90%

B3: DVU2964: D. vulgaris Hildenborough protein, 219 aa, SEQ ID NO:10, expressed from pVLT33-Pdvu0304-dvu2964 (protein)
chain: MRENACVGCLTASASHELQNALAVIRESAGLMQDLIALGGENIPRRERIVELLSLIQQQVARGGELAGGLNTLGHAWEEDDGDLARILEEFVILAGRMGRMRSVTVGLAPGESGLRAPSAGLALRVLLFDLLQTCLEEAPGCALTFAPARRDGIPGIHLRVGLARCDATTDVLRRLDAQLARLGARKEPDNGHGTPARDEPDGVLYYFTACPSATGHRA
modifications: Desulfovibrio vulgaris Hildenborough
[3]; [6]
  inhibition of biofilm formation: 45%

B4: DVU2960: D. vulgaris Hildenborough protein, 474 aa, SEQ ID NO:4, expressed from pVLT33-Pdvu0304-dvu2960 (protein)
chain: MKQASLPAGARIAGLVGRELALGPVFDAIPTGLAVLDADLRICLMNRALETMTGFTTAEVAGIPCRHVLRASVCLHRCPTRTAVCDATGGNAPCHAQEGDLLNRHRRRIPVRLTLAPLHDAQGQLCGWLHTAEDLSLVRELEERCSKGQASGPLVGRSVVMEELFRTVQALAQTETPVLITGETGTGKDAVAETIHKASPRGREPFVKASLSSLPDFLVESELFGHRKGAFPGAEEDKPGRFRMAQGGTLCLSELGDLPPAMQGRLVTFLDEGLVWPVGATDPVRCDVRLLVASNLDLEAMVASGRLREDLYSRLAAVRIHLPPLRERGEDLEFLLSHYLAHFAARLRKTIHGFSGKSLRVLLAYGFPGNVRELKNIVEYAATLCTGEVVMPSHLPAYLFHTRPAAAPPRAIERDTPKGAAEDEASARSSVVDLERRLIVDALARAGNRKGEAARILGWGRSTLWRKMKQFGLE
modifications: Desulfovibrio vulgaris Hildenborough
[3]; [6]
  inhibition of biofilm formation: 95%
